# From IntAct's records for PubMed 26040717
# B1: Autophagy-related protein 39 (Saccharomyces cerevisiae), Q06159 (parent)
# chain: MSEEDDHWNLVRLRRLRKGREGEEQSSKSEISLDSLHESSFAGEDDEDFDADVLSNTSSEESAQMNRIYDFRTSNEFSNAGVNIDQTGVPTISESFDTLSGSNVGGTVLPSMEGSKLKDSTIRNSSTLSDHIIDKSEGKSAKLKMWHVIMLSSLLSMTFSYLALEYSLTGDVLAGFKSQQSLRNNERKLLYGNIDFVDKKSYDSSSDSLSQWAPSGKYYVDFDNHIAYPLKDDDLMGWRRYKTDLVILWYTTKARMKDGWHKRINKINGGRIKLHLFLKNSFKSAQESLRVLHKEQKRRWKRLFVLLHNKYRQFSPHIKRYFDHSCQKAKQCWSGSRLQLRKLRFKSMKPFRVFQFKVRKDTNWFVKQLKRFGLKLQHSRMYKAMSECRKKNYFKCKH
# partner: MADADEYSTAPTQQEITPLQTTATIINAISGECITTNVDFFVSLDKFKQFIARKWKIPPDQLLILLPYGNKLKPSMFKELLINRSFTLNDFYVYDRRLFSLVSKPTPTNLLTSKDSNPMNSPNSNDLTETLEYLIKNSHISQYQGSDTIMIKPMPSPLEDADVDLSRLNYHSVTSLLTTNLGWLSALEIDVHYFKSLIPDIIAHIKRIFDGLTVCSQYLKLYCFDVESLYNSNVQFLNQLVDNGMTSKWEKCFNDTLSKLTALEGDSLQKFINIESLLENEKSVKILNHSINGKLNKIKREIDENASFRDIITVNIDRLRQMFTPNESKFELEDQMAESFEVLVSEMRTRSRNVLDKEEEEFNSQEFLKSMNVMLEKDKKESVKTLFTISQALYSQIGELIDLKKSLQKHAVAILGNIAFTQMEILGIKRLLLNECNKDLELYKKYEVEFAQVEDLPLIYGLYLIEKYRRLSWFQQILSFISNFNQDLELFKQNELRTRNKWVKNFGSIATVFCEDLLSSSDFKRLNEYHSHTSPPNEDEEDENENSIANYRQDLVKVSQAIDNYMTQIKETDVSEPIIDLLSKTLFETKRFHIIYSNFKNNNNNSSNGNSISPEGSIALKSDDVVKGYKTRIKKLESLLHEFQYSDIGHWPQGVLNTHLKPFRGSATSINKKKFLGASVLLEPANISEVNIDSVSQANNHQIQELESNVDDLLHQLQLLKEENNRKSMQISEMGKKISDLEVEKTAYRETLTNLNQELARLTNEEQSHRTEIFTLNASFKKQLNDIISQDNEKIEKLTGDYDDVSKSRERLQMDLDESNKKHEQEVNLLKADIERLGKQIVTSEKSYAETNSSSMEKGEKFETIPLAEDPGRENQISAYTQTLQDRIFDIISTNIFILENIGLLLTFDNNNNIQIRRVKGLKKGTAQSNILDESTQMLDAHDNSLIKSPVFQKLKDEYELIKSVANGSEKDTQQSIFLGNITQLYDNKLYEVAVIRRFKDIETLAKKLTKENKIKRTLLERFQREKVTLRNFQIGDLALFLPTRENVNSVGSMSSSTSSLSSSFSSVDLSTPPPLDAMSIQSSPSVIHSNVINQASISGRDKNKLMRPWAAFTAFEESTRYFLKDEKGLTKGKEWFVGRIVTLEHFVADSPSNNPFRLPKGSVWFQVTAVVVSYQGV
# B2: Autophagy-related protein 8 (Saccharomyces cerevisiae), P38182 (parent)
# chain: MKSTFKSEYPFEKRKAESERIADRFKNRIPVICEKAEKSDIPEIDKRKYLVPADLTVGQFVYVIRKRIMLPPEKAIFIFVNDTLPPTAALMSAIYQEHKDKDGFLYVTYSGENTFGR
# partner: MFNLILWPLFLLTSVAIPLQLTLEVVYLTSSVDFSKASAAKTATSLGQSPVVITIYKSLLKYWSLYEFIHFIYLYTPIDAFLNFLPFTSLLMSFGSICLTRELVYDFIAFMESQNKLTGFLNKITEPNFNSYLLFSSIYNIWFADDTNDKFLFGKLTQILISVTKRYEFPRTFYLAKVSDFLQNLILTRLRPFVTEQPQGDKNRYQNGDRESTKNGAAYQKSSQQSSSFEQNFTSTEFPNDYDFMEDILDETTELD
# B3: Autophagy-related protein 40 (Saccharomyces cerevisiae), Q99325 (parent)
# chain: B2 partner
# partner: B2 chain
# B4: Autophagy-related protein 8 (Saccharomyces cerevisiae), P38182 (parent)
# chain: B2 chain
# partner: B1 chain
# B5: Autophagy-related protein 39 (Saccharomyces cerevisiae), Q06159 (parent)
# chain: B1 chain
# partner: B2 chain
# Variants of: B1
# Settings: with atg11_yeast ATG11, Q12527
row,Variant,effect of a mutation on the interaction
1,MSEEDDHWNLVRLRRLRKGREGEEQSSKSEISLDSLHESSFAGEDDEDFDAAAAAAAAAEESAQMNRIYDFRTSNEFSNAGVNIDQTGVPTISESFDTLSGSNVGGTVLPSMEGSKLKDSTIRNSSTLSDHIIDKSEGKSAKLKMWHVIMLSSLLSMTFSYLALEYSLTGDVLAGFKSQQSLRNNERKLLYGNIDFVDKKSYDSSSDSLSQWAPSGKYYVDFDNHIAYPLKDDDLMGWRRYKTDLVILWYTTKARMKDGWHKRINKINGGRIKLHLFLKNSFKSAQESLRVLHKEQKRRWKRLFVLLHNKYRQFSPHIKRYFDHSCQKAKQCWSGSRLQLRKLRFKSMKPFRVFQFKVRKDTNWFVKQLKRFGLKLQHSRMYKAMSECRKKNYFKCKH [D52A;V53A;L54A;S55A;N56A;T57A;S58A;S59A],disrupting interaction strength

# Variants of: B2
# Settings: with atg40_yeast ATG40, Q99325
row,Variant,effect of a mutation on the interaction
1,MKSTFKSEYPFEKRKAESERIADRFKNRIPVICEKAEKSDIPEIDKRKYLVAADLTVGQFVYVIRKAIMLPPEKAIFIFVNDTLPPTAALMSAIYQEHKDKDGFLYVTYSGENTFGR [P52A;R67A],disrupting interaction strength

# Variants of: B3
# Settings: with atg8_yeast ATG8, P38182
row,Variant,effect of a mutation on the interaction
1,MFNLILWPLFLLTSVAIPLQLTLEVVYLTSSVDFSKASAAKTATSLGQSPVVITIYKSLLKYWSLYEFIHFIYLYTPIDAFLNFLPFTSLLMSFGSICLTRELVYDFIAFMESQNKLTGFLNKITEPNFNSYLLFSSIYNIWFADDTNDKFLFGKLTQILISVTKRYEFPRTFYLAKVSDFLQNLILTRLRPFVTEQPQGDKNRYQNGDRESTKNGAAYQKSSQQSSSFEQNFTSTEFPNDADFAEDILDETTELD [Y242A;M245A],disrupting interaction strength

# Variants of: B4
# Settings: with atg39_yeast ATG39, Q06159
row,Variant,effect of a mutation on the interaction
1,MKSTFKSEYPFEKRKAESERIADRFKNRIPVICEKAEKSDIPEIDKRKYLVAADLTVGQFVYVIRKAIMLPPEKAIFIFVNDTLPPTAALMSAIYQEHKDKDGFLYVTYSGENTFGR [P52A;R67A],disrupting interaction strength

# Variants of: B4
# Settings: with atg39_yeast ATG39, Q06159
# Remark: another data set of the same source
row,Variant,effect of a mutation on the interaction
1,MKSTFKSEYPFEKRKAESERIADRFKNRIPVICEKAEKSDIPEIDKRKYLVAADLTVGQFVYVIRKAIMLPPEKAIFIFVNDTLPPTAALMSAIYQEHKDKDGFLYVTYSGENTFGR [P52A;R67A],decreasing interaction strength

# Variants of: B5
# Settings: with atg8_yeast ATG8, P38182
row,Variant,effect of a mutation on the interaction
1,MSEEDDHANLARLRRLRKGREGEEQSSKSEISLDSLHESSFAGEDDEDFDADVLSNTSSEESAQMNRIYDFRTSNEFSNAGVNIDQTGVPTISESFDTLSGSNVGGTVLPSMEGSKLKDSTIRNSSTLSDHIIDKSEGKSAKLKMWHVIMLSSLLSMTFSYLALEYSLTGDVLAGFKSQQSLRNNERKLLYGNIDFVDKKSYDSSSDSLSQWAPSGKYYVDFDNHIAYPLKDDDLMGWRRYKTDLVILWYTTKARMKDGWHKRINKINGGRIKLHLFLKNSFKSAQESLRVLHKEQKRRWKRLFVLLHNKYRQFSPHIKRYFDHSCQKAKQCWSGSRLQLRKLRFKSMKPFRVFQFKVRKDTNWFVKQLKRFGLKLQHSRMYKAMSECRKKNYFKCKH [W8A;V11A],disrupting interaction strength
